Changes are numbered by the printed parent chain. Entries after “also recorded” stand apart in the source; their conditions may differ. Square brackets hold non-standard residues; d marks the D form. Ends that are not written are not given here. pY = N[C@@H](Cc1ccc(OP(=O)(O)O)cc1)C(=O)O

In test [1] the target is T1, PTP1B trapping mutant (Homo sapiens, UniProt P18031, D181A).
T1 construct: These two restriction sites were used to clone the catalytic domain in frame into a pGEX4TK vector (Pharmacia); made in house; host or cells: Escherichia coli BL21 (codon +)
T1 sequence (P18031 3-277 D181A limits assumed): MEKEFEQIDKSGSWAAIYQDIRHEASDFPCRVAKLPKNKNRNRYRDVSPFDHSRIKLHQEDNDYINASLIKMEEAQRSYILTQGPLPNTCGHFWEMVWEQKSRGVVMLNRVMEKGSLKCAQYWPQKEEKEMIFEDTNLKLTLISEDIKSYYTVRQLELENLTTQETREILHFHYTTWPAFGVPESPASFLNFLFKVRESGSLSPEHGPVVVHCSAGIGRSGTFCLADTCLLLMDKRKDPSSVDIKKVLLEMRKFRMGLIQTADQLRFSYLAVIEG
The experiment in a line: ELISA of phosphorylated phage clones on coated GST-PTP. Format: binding. Conditions: PTP1B selected phage clones, src-phosphorylated. Here is the method:
(§1) Single clones were amplified as described previously. The coating was done with GST-PTP or GST alone in PBS (2 μg per well in a 96 well plate format). Phosphorylation of the phages was performed following the described protocol (with and without 3 U of src kinase, in order to check the phospho-Tyr specificity of the recognition, thus be sure that positives were catalytic domain specific as shown in (30)) and during this process, each well was blocked with a solution of 5% fat free powder milk in PBS. Wells were washed 5 times in PBS-Tween® 0.5% and phages were incubated with the PTP-GST or GST in 100 μl Trapping Buffer (20 mM Tris pH 7.5, 150 mM NaCl and 1 mM EDTA) for 2 hours at 4° C. Wells were extensively washed and blocked for 1 hour in PBS-5% Milk.
In general terms: In an ELISA, binding on a coated surface is turned into a signal by an enzyme label.

In test [2] the target is T2, PTP-1B DA (trapping mutant) (Homo sapiens, UniProt P18031, D181A).
T2 construct: specific primers corresponding to the beginning and the end of the catalytic domain of every PTPs were used; made in house; host or cells: Escherichia coli BL21 (codon +)
T2 sequence (P18031 3-277 D181A limits assumed): T1 sequence (P18031 3-277 D181A limits assumed)
The experiment in a line: SPOT analysis, membrane peptides probed with radiolabeled PTP. It counts as binding. As to conditions: for SPOT binding to PTP1B trapping mutant: 15-mer peptides with phospho-Tyr on membrane; for SPOT binding to PTP1B trapping mutant, double phosphorylated peptide: two phosphorylated Tyr, compared with single ones. Here is the method: (§2) Labelling of GST-PTP for the SPOT analysis was performed as follows: 2 to 5 μg of GST fusion proteins were bound to glutathion-sepharose beads (Amersham Pharmacia Biotech) at 4° C. After washes GST fusion proteins were radiolabeled by 50 units of protein kinase from bovine heart (Sigma) in presence of 35 μCi of (γ-32P) ATP in PKA buffer (20 mM Tris pH 7.5, 100 mM NaCl, 12 mM MgCl2, 1 mM DTT) for 30 minutes on ices. After washes, fusion proteins were eluted from beads by 10 mM free glutathione in 50 mM Tris, pH 8.0 (28).
(§3) Peptides were manually synthesized on derivatized cellulose membrane provided by Sigma-Genosys, which also provided the 20 Fmoc-amino acids active esters. Fmoc-phosphotyrosines from Novabiochem (#04-12-1156) were incorporated in presence of the coupling reagent, N,N′-Diisopropylcarbodiimide (DIC; Sigma) and hydroxybenzotriale (HOBt; Fluka; Espanel et al., submitted).
(§4) Membranes were blocked (at least 2 hours) and probed at 4° C. in Western wash buffer (10 mM Tris, pH 7.4, 0.1% Triton X-100 and 150 mM NaCl)+SPOT blocking buffer (Sigma-Genosys). After 2 hours, membranes were washed several times in Western wash buffer and were autoradiographed.

Test [3] has as its target T1, PTP1B trapping mutant. Briefly: Panning of the tyrosine-biased phage library and sequencing of trapped clones. As to conditions: after three pannings, sequenced trapped phages. Format: binding. The procedure: (§5) Phages (10^9-10^10) were incubated for three hours at 30° C. in the kinase buffer (25 mM Tris pH7.5, 5 mM MgCl2, 2.5 mM MnCl2, 2.5 mM DTT and 1 mM ATP) in a total volume of 20 μl. […] Therefore, the total library was phosphorylated and passed through an antiPTyr column (Upstate). The bound phages were eluted with phenylphosphate, and the clones were passed twice again in the column. The amplified Tyrosine-carrying phages were then stocked at 4° C. in TE and used for the trapping experiment (see below). […] Furthermore, no sequences were found twice. […] This was checked following our phosphorylation protocol and using (γ-32P) ATP as a tracer.
(§6) Phages (10^8 to 10^9) were incubated in kinase buffer (20 mM Tris pH7.5, 5 mM MgCl2, 2.5 mM MnCl2, 1 mM ATP, 2.5 mM DTT and with or without 3 Units of src kinase) for 3 hours at 30° C. The p60src, purified from Baculovirus, was purchased from Upstate Biotech. Gluthation-Sepharose beads were pre-coated with 3 μg of either GST or PTP-GST for 4 hours at 4° C. in a solution of Trapping Buffer (20 mM Tris pH 7.5, 150 mM NaCl and 1 mM EDTA) with 1% BSA final. The phages were first pre-cleared using GST-beads for 30 minutes at 4° C., spun down and the supernatant was incubated with the coated PTP-GST for 1.5 hours at 4° C. with a constant shaking. Finally beads were spun down and washed several times (5 times for the first panning, then 10 times) with a solution of PBS with 0.25% Tween® final. Phages were eluted from PTP-GST by an acidic treatment (glycine buffer, pH 2.7) for 10 minutes at RT with a constant shaking, beads were spun down and phages were recovered in the supernatant. One tenth volume of a 1 M Tris pH 9.0 solution was added in order to restore the pH. Phages were finally titred in both fractions (bound and unbound) and the rest of the bound fraction was used to infect XL1 MRF′ Bacteria (Stratagene) following described procedures (24). The day after, cells were scraped and phages were amplified using helper phage M13K07 (Pharmacia) using the manufacturer's procedures.
(§7) When an increase in the number of trapped clones was observed, phages where purified as single clones and colony-PCR was performed using phage primers, forward: 5′ATG AAA AAG TCT TTA GTC CTC3′ and reverse: 5′CAG CTT GAT ACC GAT AGT TGC3′. The PCR products were then purified and sequenced using the same primers. Sequences were read in both direction using SeqmanII Software.

The target in test [4] is T3, PTP-Sap1 (Homo sapiens, UniProt Q9HD43, D986A).
T3 construct: These two restriction sites were used to clone the catalytic domain in frame into a pGEX4TK vector (Pharmacia); made in house; host or cells: Escherichia coli BL21 (codon +)
T3 sequence (Q9HD43 820-1079 D986A limits assumed): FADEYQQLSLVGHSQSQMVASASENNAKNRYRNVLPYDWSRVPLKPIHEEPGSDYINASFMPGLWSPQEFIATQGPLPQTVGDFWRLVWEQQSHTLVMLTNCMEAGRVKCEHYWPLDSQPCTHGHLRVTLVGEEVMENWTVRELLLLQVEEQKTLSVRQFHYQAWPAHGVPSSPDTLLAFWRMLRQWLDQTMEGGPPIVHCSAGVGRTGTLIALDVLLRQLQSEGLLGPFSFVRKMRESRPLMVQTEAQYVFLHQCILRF
Described as above. It counts as binding. Conditions: after three rounds, sequenced trapped phages. Here is the method: as §5, §6, §7

The next test deals with T4, WT PTP1B (Homo sapiens, UniProt P18031).
T4 construct: These two restriction sites were used to clone the catalytic domain in frame into a pGEX4TK vector (Pharmacia); GST (N); made in house; host or cells: Escherichia coli BL21 (codon +)
T4 sequence (P18031 3-277 limits assumed): T1 sequence (P18031 3-277 D181A limits assumed) with A179D
The experiment in a line: Dephosphorylation assay on GST-PEP constructs. It counts as biochemical. As to conditions: not shown. Here is the method: PEP-GST constructs were prepared as follows: the primers used correspond to the pVIII capsid sequence of M13+two restriction sites (XhoI and NotI): 5′TATCTCGAGTCTTTCGCTGCTGAGGGT GA3′ for the sense and 5′ATAGCGGCCGCTTGCAGGGAGTCAAAGGCC G3′ for the antisense. The DNA of the phage was directly amplified by adding 10^9 phages to the PCR mix. After PCR using Herculase Polymerase (Stratagene), the DNA fragments (100 bp) were purified using Microcon® PCR (Millipore) and gel extraction was performed with Utrafree®-DA (Millipore). The cloning and the protein purification were finally accomplished following the same protocol as for the PTPs, with the only difference that TKB1 (Stratagene) bacteria were transformed and a single colony was grown and induced for protein production and phosphorylation exactly as described by the manufacturer. Again, all constructs were checked by DNA sequencing before protein production.
100 ng of PEP-GST construct was incubated with 10 ng of PTP wild type in PTP buffer (50 mM Hepes pH 7.4, 0.05% Nonidet NP-40 and 1 mM DTT). The reaction was stopped by mixing equal volume aliquots with a solution of 50 mM vanadate at different laps of time. […]

Another test concerns PTP-Sap1 R88N. The experiment in a line: SPOT analysis, membrane peptides probed with radiolabeled PTP. Format: binding. As to conditions: 15-mer peptides with phosphotyrosine on membrane. The procedure:
as §2, §3, §4

Test [5] deals with T3, PTP-Sap1. Briefly: ELISA of phosphorylated phage clones on coated GST-PTP. It counts as binding. Conditions: PTP-Sap1 selected phage clones, src-phosphorylated. The procedure:
as §1

A further test addresses T5, PTP-Sap1DA (Homo sapiens, UniProt Q9HD43, D986A).
T5 construct: specific primers corresponding to the beginning and the end of the catalytic domain of every PTPs were used; made in house; host or cells: Escherichia coli BL21 (codon +)
T5 sequence (Q9HD43 820-1079 D986A limits assumed): T3 sequence (Q9HD43 820-1079 D986A limits assumed)
Briefly: SPOT analysis, membrane peptides probed with radiolabeled PTP. It counts as binding. Here is the method: as §2, §3, §4

A further test has as its target SHP1 (Homo sapiens, UniProt P29350). As to conditions: reference (40); cited from earlier work.

Sequence of SHP1 (P29350 whole entry): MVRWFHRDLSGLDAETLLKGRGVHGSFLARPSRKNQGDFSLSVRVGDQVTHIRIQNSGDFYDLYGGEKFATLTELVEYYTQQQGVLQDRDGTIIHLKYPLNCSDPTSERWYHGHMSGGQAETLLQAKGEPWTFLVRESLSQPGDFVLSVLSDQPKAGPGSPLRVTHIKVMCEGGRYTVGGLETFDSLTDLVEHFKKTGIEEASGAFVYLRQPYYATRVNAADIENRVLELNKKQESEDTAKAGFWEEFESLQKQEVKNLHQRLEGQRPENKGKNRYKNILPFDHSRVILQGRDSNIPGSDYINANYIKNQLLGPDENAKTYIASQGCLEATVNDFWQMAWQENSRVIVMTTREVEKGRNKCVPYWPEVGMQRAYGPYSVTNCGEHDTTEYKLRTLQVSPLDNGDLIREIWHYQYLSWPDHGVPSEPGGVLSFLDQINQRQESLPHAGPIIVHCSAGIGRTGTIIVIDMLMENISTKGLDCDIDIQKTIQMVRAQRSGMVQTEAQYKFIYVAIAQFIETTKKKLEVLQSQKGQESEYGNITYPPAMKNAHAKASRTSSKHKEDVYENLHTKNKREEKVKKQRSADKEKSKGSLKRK

Turning to “EFpYNLYEGVMSDPAK (EF[pY]NLYEGVMSDPAK) [Clone 1b-9]”, the ELISA result in the test with PTP1B trapping mutant [1] is recorded as “not found in ELISA”. Also, in [2], the “SPOT binding to PTP1B trapping mutant” value is given as “confirmed in SPOT”. Take “EFpYGTYRGQDSDPAK (EF[pY]GTYRGQDSDPAK) [Clone 1b-14]”: in the test with PTP1B trapping mutant [3], the “Copy in the pool” value is listed as 2×.

Consider “EFpYGTFAQSAEDPAK (EF[pY]GTFAQSAEDPAK) [x9]”, for which the “Copy in the pool” value with PTP-Sap1 [4] amounted to 3X. As for “EFQSPVpYGNFADPAK (EFQSPV[pY]GNFADPAK) [Clone 1b-11]”, the “SPOT binding to PTP1B trapping mutant” value in test [2] is “All except two sequences (1b-6 and 1b11) were recognized”. As to “EFpYATYGSAATDPAK (EF[pY]ATYGSAATDPAK) [Clone 1b-1]”, in the test with PTP1B trapping mutant [3], the “Copy in the pool” value came out at 4×. For the same compound, the “SPOT binding to PTP1B trapping mutant, double phosphorylated peptide” value (from here on “SPOT binding … double phosphorylated peptide”) in test [2] is reported as “did not seem to react as well as single ones”. Further, in the test with WT PTP1B, the “Dephosphorylation of displayed peptide (GST fusion) by WT PTP1B” value is “can dephosphorylate the displayed peptide”. As for “EFpYGQIGDHLVDPAK (EF[pY]GQIGDHLVDPAK) [Sm-11]”, the “SPOT binding to PTP-Sap1 R88N” value in the test with PTP-Sap1 R88N is “strongest signals”. Consider “EFpYGAYSNADLDPAK (EF[pY]GAYSNADLDPAK) [x5]”, for which the ELISA entry in the test with PTP-Sap1 [5] is recorded as “strongest”. The “Copy in the pool” value with PTP-Sap1 [4] was 2X. In addition, in the test with PTP-Sap1DA (doubly phosphorylated sequence), the “SPOT binding to PTP-Sap1DA, doubly phosphorylated” value is given as “weaker signal”.

As to “EFATpYEEYALMDPAK (EFAT[pY]EEYALMDPAK) [Clone 1b-12]”, the “SPOT binding … double phosphorylated peptide” value in test [2] is “did not seem to react as well as single ones”. For the compound “EFpYGTFAPKPLDPAK (EF[pY]GTFAPKPLDPAK) [Clone 1b-13]”, in test [2], the “SPOT binding to PTP1B trapping mutant” value is “signal is weaker”.

Turning to “EFQpYZGEYTRGDPAK (EFQ[pY]XGEYTRGDPAK; not fully specified (residue 5)) [Clone 1b-4]”, the ELISA result with PTP1B trapping mutant [1] is listed as “not found in ELISA”. Further, in test [2], the “SPOT binding to PTP1B trapping mutant” value was “confirmed in SPOT; also recorded: best substrate in this assay” and the “SPOT binding … double phosphorylated peptide” value is recorded as “binding became more efficient”.

Regarding “EFIpYGSFHQTADPAK (EFI[pY]GSFHQTADPAK) [Sm-15]”, in the test on PTP-Sap1 R88N, the “SPOT binding to PTP-Sap1 R88N” value is reported as “strongest signals”. For the compound “EFGATpYGVYTSDPAK (EFGAT[pY]GVYTSDPAK) [Sm-2]”, the “SPOT binding to PTP-Sap1 R88N” value in the test on PTP-Sap1 R88N is “strongest signals”. Take `O.O.O.O.O.O.O.O.O.O=C([O-])[C@@H]1[O][Sb]2([O-])([O][Sb]34([OH])[O][C@H]([C@H](O)CO)[C@H]([O]3)[C@H](C(=O)[O-])[O]4)[O][C@H]([C@H](O)CO)[C@@H]1[O]2.[Na+].[Na+].[Na+]` [sodium stibogluconate]: the “Inhibition of SHP1” value at SHP1 is given as “strongly inhibits”. “EFEPIpYNAYQVDPAK (EFEPI[pY]NAYQVDPAK) [Clone 1b-6]”: in [2], the “SPOT binding to PTP1B trapping mutant” value is “All except two sequences (1b-6 and 1b11) were recognized”. On to “EFLpYANVERSSDPAK (EFL[pY]ANVERSSDPAK) [Sm-8]”, for which the results for the “SPOT binding to PTP-Sap1 R88N” value with PTP-Sap1 R88N and with PTP-Sap1 R88N (listed as sm-8) were “did not bind” and “not recognized”, respectively. Regarding “EFpYGQFpYGPPQDPAK (EF[pY]GQF[pY]GPPQDPAK) [x2]”, the “SPOT binding to PTP-Sap1DA” value with PTP-Sap1DA (15-mer peptides with phosphotyrosine on membrane) is reported as “comparable SPOT results for both phosphorylated Tyrosines”.

In the case of “EFpYGPVASDASDPAK (EF[pY]GPVASDASDPAK) [x58]”, the ELISA entry in the test with PTP-Sap1 [5] is recorded as “recognized in ELISA”.
